Data reported in patent US11136407.
pKd: −log10 of the molar value.

Tests used:
[1] = target: CD9-3×FLAG-rabbitFc-Sortase-biotin (human; rabbit); test: SPR (IBIS MX96) on CD9 chip
[2] = target: CD9-3×FLAG-rabbitFc-Sortase-biotin (human; rabbit); test: SPR, 1:1 model
[3] = target: CD9-3×FLAG-rabbitFc-Sortase-biotin (human; rabbit); test: ELISA, biotinylated CD9-EC2-Fc on streptavidin plate, goat anti-mouse HRP
[4] = target: CD9-3×FLAG-rabbitFc-Sortase-biotin (human; rabbit); test: SPR; rests on the kd set to 0.1*10^-5; unit from the legend paragraph 216
[5] = target: CD9-3×FLAG-rabbitFc-Sortase-biotin (human; rabbit); test: SPR (IBIS MX96), antibody injected over CD9-3×FLAG-rabbitFc-Sortase-biotin chip, 1:1 model
[6] = target: CD9-3×FLAG-rabbitFc-Sortase-biotin (human; rabbit); test: SPR; * legend: dissociation too low for accurate fitting, a value of 0.1*10^-5 is used
[7] = target: CD9-3×FLAG-rabbitFc-Sortase-biotin (human; rabbit); test: SPR, 1:1 model; unit from the legend paragraph 216

Row | Substance | fold affinity against AT14-012 [1] [fold] | kon [2] [M⁻¹ s⁻¹] | EC50 [3] [µg/mL] | pKd [4] | pKd [5] | koff [6] [s⁻¹] | fold dissociation against HI9a [1] [fold] | pKd [7] | koff [2] [s⁻¹]
1 | mouse anti-CD9 antibody clone HI9a | 19000 | 430000 | 0.02 | 11.63 | 11.63 | < 1e-06 |  |  | 
2 | mouse anti-CD9 antibody clone ALB6 |  | 151000 | 0.013 |  | 9.84 |  | 22 | 9.84 | 2.16e-05
